Assay results: paper doi:10.1101/2025.11.06.685569 (bioRxiv, 2025)
Changes are numbered by the printed parent chain.

T1: FLAG-tagged Atg23 (S. cerevisiae, UniProt Q06671 1-453)
T1 sequence (looked up): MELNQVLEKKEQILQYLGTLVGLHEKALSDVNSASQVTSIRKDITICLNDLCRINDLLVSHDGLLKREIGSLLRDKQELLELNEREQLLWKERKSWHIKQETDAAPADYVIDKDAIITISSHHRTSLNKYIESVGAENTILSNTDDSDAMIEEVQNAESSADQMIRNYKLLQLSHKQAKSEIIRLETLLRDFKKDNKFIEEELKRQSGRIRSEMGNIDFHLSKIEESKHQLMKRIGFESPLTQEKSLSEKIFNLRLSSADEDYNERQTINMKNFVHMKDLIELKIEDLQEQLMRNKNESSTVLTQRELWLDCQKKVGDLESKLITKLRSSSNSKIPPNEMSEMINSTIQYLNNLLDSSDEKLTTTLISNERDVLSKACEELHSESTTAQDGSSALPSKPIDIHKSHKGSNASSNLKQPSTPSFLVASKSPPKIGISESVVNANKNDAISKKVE

T2: Atg23^Y16A_K42A_D43A_E380A mutant (S. cerevisiae, UniProt Q06671 1-453, Y16A | K42A | D43A | E380A)
T2 sequence (looked up): T1 sequence (looked up) with Y16A, K42A, D43A, E380A

T3: Atg23 (no tag named in the legend) (S. cerevisiae, UniProt Q06671 1-453)
T3 sequence (looked up): T1 sequence (looked up)

B1: Myc-Atg9^CTR_939-997-StrepII^2x (domain or fragment, S. cerevisiae, UniProt Q12142 939-997, looked up)
chain: NDHEYVLTESFLDSGAFPNHDVIDHNKMLNSNYNGNGILNKGGVLGLVKEYYKKSDVGR
B2: FLAG-tagged Atg9^CTR (domain or fragment, S. cerevisiae, UniProt Q12142 758-997, looked up)
chain: ENSEYVDGLGYVCKYAMFNMKNIDGEDTHSMDEDSLTKKIAVNGSHTLNSKRRSKFTAEDHSDKDLANNKMLQSYVYFMDDYSNSENLTGKYQLPAKKGYPNNEGDSFLNNKYSWRKQFQPGQKPELFRIGKHALGPGHNISPAIYSTRNPGKNWDNNNNGDDIKNGTNNATAKNDDNNGNNDHEYVLTESFLDSGAFPNHDVIDHNKMLNSNYNGNGILNKGGVLGLVKEYYKKSDVGR
B3: FLAG-tagged Atg9^CTR_S948D_S969D (domain or fragment, S. cerevisiae, UniProt Q12142 758-997, looked up)
chain: B2 chain with S191D, S212D
B4: FLAG-tagged Atg9^NTR (domain or fragment, S. cerevisiae, UniProt Q12142 1-318, looked up)
chain: MERDEYQLPNSHGKNTFLSRIFGLQSDEVNPSLNSQEMSNFPLPDIERGSSLLHSTNDSREDVDENDLRVPESDQGTSTEEEDEVDEEQVQAYAPQISDGLDGDHQLNSVTSKENVLETEKSNLERLVEGSTDDSVPKVGQLSSEEEEDNEFINNDGFDDDTPLFQKSKIHEFSSKKSNTIEDGKRPLFFRHILQNNRPQRDTQKLFTSSNAIHHDKDKSANNGPRNINGNQKHGTKYFGSATQPRFTGSPLNNTNRFTKLFPLRKPNLLSNISVLNNTPEDRINTLSVKERALWKWANVENLDIFLQDVYNYYLGNG
B5: Myc-tagged Atg23 (natural protein, S. cerevisiae, UniProt Q06671 1-453, looked up)
chain: T1 sequence (looked up)
B6: untagged Atg23 (natural protein, S. cerevisiae, UniProt Q06671 1-453, looked up)
chain: T1 sequence (looked up)
B7: FLAG-tagged Atg9^CTR_Y989F_Y990F (domain or fragment, S. cerevisiae, UniProt Q12142 758-997, looked up)
chain: B2 chain with Y232F, Y233F
B8: FLAG-tagged Atg9^CTR_S948A_S969A (domain or fragment, S. cerevisiae, UniProt Q12142 758-997, looked up)
chain: B2 chain with S191A, S212A

Legend:
FLAG-tagged Atg9^CTR [1] = target: B2; assay: pull-down
FLAG-tagged Atg23 = target: T1, FLAG-tagged Atg23; assay: pull-down
untagged Atg23 = target: B6; assay: ITC
[2] = target: T2, Atg23^Y16A_K42A_D43A_E380A mutant; assay: pull-down
[3] = target: T3, Atg23 (no tag named in the legend); assay: pull-down
mass photometry = target: the molecule itself; assay: mass photometry
FLAG-tagged Atg9^NTR = target: B4; assay: ITC
FLAG-tagged Atg9^CTR [4] = target: B2; assay: ITC
Myc-tagged Atg23 = target: B5; assay: pull-down

TRGGSFQDFRAEFIQRSTQFLTSLPEFCKEVVSRILGRSTAQRGGYSAV (domain or fragment, S. cerevisiae, UniProt P46989 223-271, looked up) [SUMO*-Atg27^CTR-StrepII^2x]: binds (FLAG-tagged Atg9^CTR [1]).

B1: binds (FLAG-tagged Atg23).

B2 was tested, and the Kd (untagged Atg23) was 0.54 ± 0.08 µM and the binding result [2] was “binds”.

B3: binds [3].

For B4, the Kd (untagged Atg23) was 6.7 ± 1.2 µM.

B5 was tested, and the “stoichiometry N” value (mass photometry) was 2.

With B6 the “stoichiometry N” value (FLAG-tagged Atg9^NTR) was about 1 and the “stoichiometry N” value (FLAG-tagged Atg9^CTR [4]) was about 1.

B7: binds (Myc-tagged Atg23).

B8: binds (Myc-tagged Atg23).
